# B1: anti-p95HER2 antibody clone R4-15 (antibody, human IgG1, V domains shown)
# VH: QITLKESGPTLVKPTQTLTLTCTFSGFSLSSGGVGVGWIRQPPGKALEWLALIYWDDDKRYSPSLKSRLTITKDTSKKQVVLTMTNMDPVDTATYYCAHLDYPENYFDQWGQGTLVTVSS
# VL: DIQMTQSPSSLSASVGDRVTFTCRASQSISTYLNWYQQKPGKAPKLLIYAASTLQSGVPSRFSGSGSGTDFTLAISSLQPEDFATYFCQQSYSFPTFGQGTRLEIKR
# B2: anti-p95HER2 antibody clone R4-5 (antibody, human IgG1, kappa, V domains shown)
# VH: QITLKESGPALVKPTQTLTLTCTFSGFSLSTSGVGVGWIRQPPGKALEWLALIYWDDDKRYSPSLKSRLTITKDTSKNQVVLTMTNMDPVDTATYYCAHSRLPYNSHGYWGQGTTVTVSS
# VL: DIQMTQSPSSLSASVGDRVTITCQASQAIGNYLSWYQQKPGRAPKLLIYAASTLHSGVPSRFSGSGSGTDFTLTITSLQPDDFATYYCQQSYSVPVTFGLGTKLEIKR
# Biological target: p95HER2 expressed on cells (p95HER2-HEK293, p95HER2-expressing NCI-H292) (human) (UniProt P04626)
# Assay: flow cytometry on p95HER2-expressing NCI-H292 cells, ug/mL is the unit of the x axis
row,Binder,EC50
1,B1,0.0659 µg/mL
2,B2,0.399 µg/mL

# — US20250026841A1
